Reference: publication PMC10016340 (Chemical Science, 2023)

Experiments:
αSOs-Alexa488 = αSOs-Alexa488 (Homo sapiens, UniProt P37840); test: FIDA binding of αSOs to neuronal proteins in solution; details: up to 150 μM ligand, in solution
α-syn = α-syn (Homo sapiens, UniProt P37840); test: ThT aggregation kinetics of α-syn; format: biochemical; details: 20 μM α-syn, 5 μM ligand; α-syn alone half-time 44 h
[1] = molecular target: α-syn monomers, oligomers or fibrils (Homo sapiens, UniProt P37840); test: Dot-blot binding assay; details: 0.05–0.4 μg immobilized protein, 33 μg mL^−1 α-syn monomer, oligomer or fibril

Reduction of half-time of aggregation (α-syn)	Binding preference for α-syn species in dot blot [1]	Molecule	Change in Rh of αSOs-Alexa488 on titration with ligand (αSOs-Alexa488)
		NAD-dependent protein deacetylase sirtuin-2 (protein) MAEPDPSHPLETQAGKVQEAQDSDSDSEGGAAGGEADMDFLRNLFSQTLSLGSQKERLLDELTLEGVARYMQSERCRRVICLVGAGISTSAGIPDFRSPSTGLYDNLEKYHLPYPEAIFEISYFKKHPEPFFALAKELYPGQFKPTICHYFMRLLKDKGLLLRCYTQNIDTLERIAGLEQEDLVEAHGTFYTSHCVSASCRHEYPLSWMKEKIFSEVTPKCEDCQSLVKPDIVFFGESLPARFFSCMQSDFLKVDLLLVMGTSLQVQPFASLISKAPLSTPRLLINKEKAGQSDPFLGMIMGLGGGMDFDSKKAYRDVAWLGECDQGCLALAELLGWKKELEDLVRREHASIDAQSGAGVPNPSTSASPKKSPPPAKDEARTTEREKPQ	little change in Rh
3 fold	bound most strongly to fibrils	Ubiquitin carboxyl-terminal hydrolase isozyme L1 (UCH-L1) (protein) MQLKPMEINPEMLNKVLSRLGVAGQWRFVDVLGLEEESLGSVPAPACALLLLFPLTAQHENFRKKQIEELKGQEVSPKVYFMKQTIGNSCGTIGLIHAVANNQDKLGFEDGSVLKQFLSETEKMSPEDRAKCFEKNEAIQAAHDAVAQEGQCRVDDKVNFHFILFNNVDGHLYELDGRMPFPVNHGASSEDTLLKDAAKVCREFTEREQGEVRFSAVALCKAA	little change in Rh
